# Laboratory results published in article PMC7948974, “Heme oxygenase-1 affects cytochrome P450 function through the formation of heteromeric complexes: Interactions between CYP1A2 and heme oxygenase-1” (The Journal of Biological Chemistry, 2020).
# T1: GFP-HO-1 (heme oxygenase 1 with an N-terminal GFP2 tag) (human, UniProt P09601 1-288)
# T1 sequence (looked up): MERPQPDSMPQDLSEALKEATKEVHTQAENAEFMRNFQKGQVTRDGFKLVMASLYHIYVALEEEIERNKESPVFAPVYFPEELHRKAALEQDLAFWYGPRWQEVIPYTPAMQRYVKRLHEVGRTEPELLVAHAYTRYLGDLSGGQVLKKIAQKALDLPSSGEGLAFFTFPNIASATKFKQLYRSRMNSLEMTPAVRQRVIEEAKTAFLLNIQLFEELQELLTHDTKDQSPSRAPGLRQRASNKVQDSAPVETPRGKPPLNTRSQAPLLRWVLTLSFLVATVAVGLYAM
# Biological target: T1, GFP-HO-1 (heme oxygenase 1 with an …)
# Experiment: cell-based or functional assay
binder,measurement,value
"POR-Rluc (NADPH-cytochrome P450 reductase with a C-terminal Rluc tag) (enzyme, human, UniProt P16435 1-677, looked up) MGDSHVDTSSTVSEAVAEEVSLFSMTDMILFSLIVGLLTYWFLFRKKKEEVPEFTKIQTLTSSVRESSFVEKMKKTGRNIIVFYGSQTGTAEEFANRLSKDAHRYGMRGMSADPEEYDLADLSSLPEIDNALVVFCMATYGEGDPTDNAQDFYDWLQETDVDLSGVKFAVFGLGNKTYEHFNAMGKYVDKRLEQLGAQRIFELGLGDDDGNLEEDFITWREQFWPAVCEHFGVEATGEESSIRQYELVVHTDIDAAKVYMGEMGRLKSYENQKPPFDAKNPFLAAVTTNRKLNQGTERHLMHLELDISDSKIRYESGDHVAVYPANDSALVNQLGKILGADLDVVMSLNNLDEESNKKHPFPCPTSYRTALTYYLDITNPPRTNVLYELAQYASEPSEQELLRKMASSSGEGKELYLSWVVEARRHILAILQDCPSLRPPIDHLCELLPRLQARYYSIASSSKVHPNSVHICAVVVEYETKAGRINKGVATNWLRAKEPAGENGGRALVPMFVRKSQFRLPFKATTPVIMVGPGTGVAPFIGFIQERAWLRQQGKEVGETLLYYGCRRSDEDYLYREELAQFHRDGALTQLNVAFSREQSHKVYVQHLLKQDREHLWKLIEGGAHIYVCGDARNMARDVQNTFYDIVAELGAMEHAQAVDYIKKLMTKGRYSLDVWS","apparent Km^POR•HO-1 from HO-1-mediated heme degradation against POR concentration 0.025-0.5 μM; purified recombinant HO-1 (0.1 μM) and POR in DLPC, in the presence of 0.1 μM CYP1A2",0.024 µM
